This experiment deals with NEUFcε (Arthrobacter urefaciens;mouse, UniProt P06336 99-421). The experiment is described as follows: BLI.

Usually Kd stands for a measure of binding affinity in units of concentration. The low end stands for higher affinity, the high end for lower affinity.

B1: hFcεRIα (receptor)
chain: VPQKPKVSLNPPWNRIFKGENVTLTCNGNNFFEVSSTKWFHNGSLSEETNSSLNIVNAKFEDSGEYKCQHQQVNESEPVYLEVFSDWLLLQASAEVVMEGQPLFLRCHGWRNWDVYKVIYYKDGEALKYWYENHNISITNATVEDSGTYYCTGKVWQLDYESEPLNITVIKAPREKYWLQ
As for B1, the Kd is less than 1 pM.
